The record followed here is article PMC5070708.

For the test, the target named is ILz(6):TRAIL (human) (UniProt P50591). Briefly: SEC.

Several values for one entry are separate records, joined by “and”; a condition that tells them apart may be missing. Equal values may be shown once.

A word on the stoichiometry N: it is a count of units in the complex or per binding partner.

Consider “ILz(6):TRAIL (from UniProt P50591 114-281) (ligand)”, for which the stoichiometry N was 3 and 6.
